Source: US20230105029A1 (CHIA TAI TIANQING PHARMACEUTICAL GROUP, published 2023)
Where a chain is given by its changes, count along the chain named. Where two headings read alike, the source gives them in different places. Values belong to the binder of their own block, whether it stands above or below them.

Columns and labels:
[1] = target: T1, recombinant human IL4Rα-his protein (in house made) (human, UniProt P24394 26-232, limits assumed); assay: SPR (Biacore), antibody captured, IL4Rα-his flowed
T1 construct: also called Human IL4Ra-his

[2] = target: T1, recombinant human IL4Rα-his protein (in …); assay: SPR (Biacore), antibody captured, IL4Rα-his flowed; remark: listed apart in the source

B1: huB8G11F2B7G5E8-V1 (antibody, human IgG4 S228P, kappa, V domains shown)
VH: EVQLVQSGAEVKKPGATVKISCKASGFNIKDTYMHWVKQAPGKGLEWVGRIDPTNGYTIYASKFQGKATITADTSSNTAYMELSSLRSEDTAVYHCVSRRPWFAYWGQGTLVTVSS
VL: DIVMTQTPLSLSVTPGQPASISCRSSQSIVHSNGNTYLEWYLQKPGQSPQLLIYKVTNRFSGVPDRFSGSGSGTDFTLKISRVEAEDVGVYYCFQGSHVPYTFGQGTKLEIKR
notes: Humanized, human IgG4/kappa; also called huBSG11F2B7G5E8-V1
Kd [1]: 3.73 nM | koff [1]: 0.00208 s⁻¹ | kon [1]: 557000 M⁻¹ s⁻¹

B4: huB8G11F2B7G5E8-V3 (antibody, human IgG4 S228P, kappa, V domains shown)
VH: B1 VH with K38Q
VL: B1 VL
notes: Humanized, human IgG4/kappa; also called huBSG11F2B7G5E8-V3
Kd [1]: 3.57 nM | koff [1]: 0.00199 s⁻¹ | kon [1]: 558000 M⁻¹ s⁻¹

B5: huB8G11F2B7G5E8-V8 (antibody, human IgG4 S228P, kappa, V domains shown)
VH: B1 VH with N77D
VL: B1 VL
notes: Humanized, human IgG4/kappa; also called huBSG11F2B7G5E8-V8
Kd [1]: 4.89 nM | koff [1]: 0.00283 s⁻¹ | kon [1]: 578000 M⁻¹ s⁻¹

B7: huB8G11F2B7G5E8-V6 (antibody, human IgG4 S228P, kappa, V domains shown)
VH: B1 VH with A68V
VL: B1 VL
notes: Humanized, human IgG4/kappa; also called huBSG11F2B7G5E8-V6
Kd [1]: 3.95 nM | koff [1]: 0.00219 s⁻¹ | kon [1]: 554000 M⁻¹ s⁻¹

B8: huC2C1A1A1-V4 (antibody, human IgG4 S228P, kappa, V domains shown)
VH: EVQLVESGGGLVQPGGSLRLSCAASGFTFSTYGMSWVRQAPGKGLVWVSTINSNGGSTSYPDSVKGRFTISRDNAKNTLYLQMNSLRAEDTAVYYCARFFRFRNAMDYWGQGTLVTVSS
VL: DIQMTQSPSSLSASVGDRVTITCRTSENIYSYLAWYQQKPGKAPKFLIYNAKTLAEGVPSRFSGSGSGTDFTLTISSLQPEDFATYYCQHYYGPPTWTFGQGTKVEIKR
notes: Humanized, human IgG4/kappa
Dissociation % [2]: 0.2% | End (RU) [2]: 49.6 RU | Kd [2]: < 0.022 nM | Start (RU) [2]: 49.5 RU | koff [2]: < 1e-05 s⁻¹ | kon [2]: 455000 M⁻¹ s⁻¹

B9: huC2C1A1A1-V6 (antibody, human IgG4 S228P, kappa, V domains shown)
VH: B8 VH with A40S, G42D, G44R, V46E, N84R
VL: DIQMTQSPSSLSASVGQRVTITCRTSENIYSYLAWYQQKQGKPPRFLIYNAKTLAEGVPSRFSGSGSGTEFTLTITSLQAEDFGVYYCQHYYGPPTWTFGPGTKLEIKR
notes: Humanized, human IgG4/kappa
Dissociation % [2]: -0.59% | End (RU) [2]: 50.6 RU | Kd [2]: < 0.0261 nM | Start (RU) [2]: 50.9 RU | koff [2]: < 1e-05 s⁻¹ | kon [2]: 383000 M⁻¹ s⁻¹

B12: huC2C1A1A1-V3 (antibody, human IgG4, V domains shown)
VH: B8 VH
VL: B8 VL with I48V
notes: Humanized, human IgG4/kappa
Dissociation % [2]: -0.62% | End (RU) [2]: 48.3 RU | Kd [2]: < 0.0389 nM | Start (RU) [2]: 48.6 RU | koff [2]: < 1e-05 s⁻¹ | kon [2]: 257000 M⁻¹ s⁻¹

B13: huC2C1A1A1-V13 (antibody, human IgG4 S228P, kappa, V domains shown)
VH: B8 VH with S49A
VL: B8 VL with F46L
notes: Humanized, human IgG4/kappa
Dissociation % [2]: 0.82% | End (RU) [2]: 36.7 RU | Kd [2]: < 0.0838 nM | Start (RU) [2]: 36.4 RU | koff [2]: < 1e-05 s⁻¹ | kon [2]: 119000 M⁻¹ s⁻¹

B14: huC2C1A1A1-V12 (antibody, human IgG4 S228P, kappa, V domains shown)
VH: B8 VH with W47L, S49A
VL: B8 VL
notes: Humanized, human IgG4/kappa
Dissociation % [2]: -1.88% | End (RU) [2]: 52.1 RU | Kd [2]: 0.047 nM | Start (RU) [2]: 53.1 RU | koff [2]: 1.42e-05 s⁻¹ | kon [2]: 302000 M⁻¹ s⁻¹

B15: huC2C1A1A1-V11 (antibody, human IgG4, V domains shown)
VH: B8 VH with W47L, S49A
VL: B8 VL with I48V
notes: Humanized, human IgG4/kappa
Dissociation % [2]: -0.92% | End (RU) [2]: 53.7 RU | Kd [2]: < 0.0303 nM | Start (RU) [2]: 54.2 RU | koff [2]: < 1e-05 s⁻¹ | kon [2]: 330000 M⁻¹ s⁻¹

B18: huC2C1A1A1-V16 (antibody, human IgG4 S228P, kappa, V domains shown)
VH: B8 VH with S49A
VL: B8 VL
notes: Humanized, human IgG4/kappa
Dissociation % [2]: -0.42% | End (RU) [2]: 47.1 RU | Kd [2]: < 0.0338 nM | Start (RU) [2]: 47.3 RU | koff [2]: < 1e-05 s⁻¹ | kon [2]: 296000 M⁻¹ s⁻¹

B19: huC2C1A1A1-V9 (antibody, human IgG4 S228P, kappa, V domains shown)
VH: B8 VH with W47L, S49A
VL: B8 VL with F46L
notes: Humanized, human IgG4/kappa
Dissociation % [2]: -0.24% | End (RU) [2]: 41.1 RU | Kd [2]: < 0.0507 nM | Start (RU) [2]: 41.2 RU | koff [2]: < 1e-05 s⁻¹ | kon [2]: 197000 M⁻¹ s⁻¹

B21: huC2C1A1A1-V2 (antibody, human IgG4 S228P, kappa, V domains shown)
VH: B8 VH
VL: B9 VL
notes: Humanized, human IgG4/kappa
Dissociation % [2]: -0.2% | End (RU) [2]: 50.3 RU | Kd [2]: < 0.0442 nM | Start (RU) [2]: 50.4 RU | koff [2]: < 1e-05 s⁻¹ | kon [2]: 226000 M⁻¹ s⁻¹

The next lines start with the values.

Kd [1]: 3.75 nM | koff [1]: 0.00222 s⁻¹ | kon [1]: 592000 M⁻¹ s⁻¹
B2: huB8G11F2B7G5E8-V7 (antibody, human IgG4 S228P, kappa, V domains shown)
VH: B1 VH with S76T
VL: B1 VL
notes: Humanized, human IgG4/kappa; also called huBSG11F2B7G5E8-V7

Kd [1]: 4.13 nM | koff [1]: 0.00241 s⁻¹ | kon [1]: 584000 M⁻¹ s⁻¹
B3: huB8G11F2B7G5E8-V5 (antibody, human IgG4 S228P, kappa, V domains shown)
VH: B1 VH with K67R
VL: B1 VL
notes: Humanized, human IgG4/kappa; also called huBSG11F2B7G5E8-V5

Kd [1]: 5.32 nM | koff [1]: 0.00331 s⁻¹ | kon [1]: 621000 M⁻¹ s⁻¹
B6: huB8G11F2B7G5E8-V9 (antibody, human IgG4 S228P, kappa, V domains shown)
VH: B1 VH with H95Y
VL: B1 VL
notes: Humanized, human IgG4/kappa; also called huBSG11F2B7G5E8-V9

Dissociation % [2]: -1.54% | End (RU) [2]: 63.9 RU | Kd [2]: < 0.0304 nM | Start (RU) [2]: 64.9 RU | koff [2]: < 1e-05 s⁻¹ | kon [2]: 329000 M⁻¹ s⁻¹
B10: huC2C1A1A1-V10 (antibody, human IgG4 S228P, kappa, V domains shown)
VH: B8 VH with W47L, S49A
VL: B9 VL
notes: Humanized, human IgG4/kappa

Dissociation % [2]: -2.28% | End (RU) [2]: 64.3 RU | Kd [2]: 0.0283 nM | Start (RU) [2]: 65.8 RU | koff [2]: 7.5e-05 s⁻¹ | kon [2]: 2.65e+06 M⁻¹ s⁻¹
B11: huC2C1A1A1-V5 (antibody, human IgG4 S228P, kappa, V domains shown)
VH: B8 VH with A40S, G42D, G44R, V46E, N84R
VL: B8 VL with F46L
notes: Humanized, human IgG4/kappa

Dissociation % [2]: -1.23% | End (RU) [2]: 64.4 RU | Kd [2]: < 0.036 nM | Start (RU) [2]: 65.2 RU | koff [2]: < 1e-05 s⁻¹ | kon [2]: 278000 M⁻¹ s⁻¹
B16: huC2C1A1A1-V8 (antibody, human IgG4 S228P, kappa, V domains shown)
VH: B8 VH with A40S, G42D, G44R, V46E, N84R
VL: B8 VL
notes: Humanized, human IgG4/kappa

Dissociation % [2]: -0.66% | End (RU) [2]: 60.1 RU | Kd [2]: < 0.038 nM | Start (RU) [2]: 60.5 RU | koff [2]: < 1e-05 s⁻¹ | kon [2]: 263000 M⁻¹ s⁻¹
B17: huC2C1A1A1-V7 (antibody, human IgG4, V domains shown)
VH: B8 VH with A40S, G42D, G44R, V46E, N84R
VL: B8 VL with I48V
notes: Humanized, human IgG4/kappa

Dissociation % [2]: 0.23% | End (RU) [2]: 44 RU | Kd [2]: < 0.0773 nM | Start (RU) [2]: 43.9 RU | koff [2]: < 1e-05 s⁻¹ | kon [2]: 129000 M⁻¹ s⁻¹
B20: huC2C1A1A1-V1 (antibody, human IgG4 S228P, kappa, V domains shown)
VH: B8 VH
VL: B8 VL with F46L
notes: Humanized, human IgG4/kappa
